Results: IntAct's records for PubMed 22990239

B1: Heat shock 70 kDa protein 4 (Homo sapiens), P34932 (parent)
chain: MSVVGIDLGFQSCYVAVARAGGIETIANEYSDRCTPACISFGPKNRSIGAAAKSQVISNAKNTVQGFKRFHGRAFSDPFVEAEKSNLAYDIVQLPTGLTGIKVTYMEEERNFTTEQVTAMLLSKLKETAESVLKKPVVDCVVSVPCFYTDAERRSVMDATQIAGLNCLRLMNETTAVALAYGIYKQDLPALEEKPRNVVFVDMGHSAYQVSVCAFNRGKLKVLATAFDTTLGGRKFDEVLVNHFCEEFGKKYKLDIKSKIRALLRLSQECEKLKKLMSANASDLPLSIECFMNDVDVSGTMNRGKFLEMCNDLLARVEPPLRSVLEQTKLKKEDIYAVEIVGGATRIPAVKEKISKFFGKELSTTLNADEAVTRGCALQCAILSPAFKVREFSITDVVPYPISLRWNSPAEEGSSDCEVFSKNHAAPFSKVLTFYRKEPFTLEAYYSSPQDLPYPDPAIAQFSVQKVTPQSDGSSSKVKVKVRVNVHGIFSVSSASLVEVHKSEENEEPMETDQNAKEEEKMQVDQEEPHVEEQQQQTPAENKAESEEMETSQAGSKDKKMDQPPQAKKAKVKTSTVDLPIENQLLWQIDREMLNLYIENEGKMIMQDKLEKERNDAKNAVEEYVYEMRDKLSGEYEKFVSEDDRNSFTLKLEDTENWLYEDGEDQPKQVYVDKLAELKNLGQPIKIRFQESEERPKLFEELGKQIQQYMKIISSFKNKEDQYDHLDAADMTKVEKSTNEAMEWMNNKLNLQNKQSLTMDPVVKSKEIEAKIKELTSTCSPIISKPKPKVEPPKEEQKNAEQNGPVDGQGDNPGPQAAEQGTDTAVPSDSDKKLPEMDID

Variants of: B1
Details: with hsp7c_human HSPA8, P11142
hsp7c_human HSPA8, P11142, sequence (P11142 whole entry, looked up): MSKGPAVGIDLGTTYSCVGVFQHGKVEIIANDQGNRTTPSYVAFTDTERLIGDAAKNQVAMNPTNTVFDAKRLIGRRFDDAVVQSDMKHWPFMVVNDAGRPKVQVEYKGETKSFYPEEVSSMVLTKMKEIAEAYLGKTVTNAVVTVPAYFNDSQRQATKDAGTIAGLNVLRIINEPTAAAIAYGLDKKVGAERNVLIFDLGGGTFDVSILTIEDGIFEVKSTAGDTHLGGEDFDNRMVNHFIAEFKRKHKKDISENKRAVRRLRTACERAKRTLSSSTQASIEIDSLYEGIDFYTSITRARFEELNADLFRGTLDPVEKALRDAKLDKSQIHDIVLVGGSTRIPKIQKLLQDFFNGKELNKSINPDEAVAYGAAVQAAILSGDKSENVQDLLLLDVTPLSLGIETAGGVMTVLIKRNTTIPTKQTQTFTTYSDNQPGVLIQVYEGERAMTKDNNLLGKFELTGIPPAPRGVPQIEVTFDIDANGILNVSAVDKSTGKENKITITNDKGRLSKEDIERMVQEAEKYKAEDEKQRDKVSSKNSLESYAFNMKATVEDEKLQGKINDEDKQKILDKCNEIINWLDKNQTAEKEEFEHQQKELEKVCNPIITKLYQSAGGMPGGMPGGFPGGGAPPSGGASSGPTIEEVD
For E622A, the “effect of a mutation on the interaction” value was “decreasing interaction”. With N619Y the “effect of a mutation on the interaction” value was “decreasing interaction”.
